Values of other authors, collected in patent publication US9163073B2, “Chemically and thermodynamically stable insulin analogues and improved methods for their production” (AMIDEBIO LLC, priority 2013, dated 2015).

Experiments:
[1] = system: breast cancer; details: in vivo
[2] = target: insulin receptor over the IGF-1R (Homo sapiens, UniProt P06213)
[3] = after one year in acidic formulations

Substance	induction of breast cancer [1]	selectivity for its own receptor over the IGF-1R [2]	AsnA21 deamidation [3]
AspB10 insulin: insulin analogue with AspB10 substitution, relatively high affinity for the IGF-1R	induce breast cancer	–	–
native insulin: native two-chain human insulin (A chain SEQ ID NO 2, B chain SEQ ID NO 3)	–	> 100 fold	20-30%
